{"source": "paper PMC8709174", "molecular_target": "Aplysia californica acetylcholine binding protein (Ac-AChBP) (Aplysia californica)", "experiment": "crystal structure"}
{"substance": "α-conotoxin RgIA (peptide)", "values": [{"measurement": "stoichiometry N (RgIA per Ac-AChBP pentamer)", "value": 5}]}
